Laboratory results taken from patent US20190284292A1 (IMMUNOAH THERAPEUTICS, published 2019).

Key:
[1] = target: T1, human 4-1BB (human, UniProt Q07011 24-255); experiment: flow cytometry, staining of 293T cells transfected with human 4-1BB, compared with untransfected 293T cells
T1 construct: whole, on cells; Also used here for the native receptor on human T cells in the co-stimulation assay; also called CD137; h4-1BB

[2] = target: T1, human 4-1BB; experiment: binding to 293T cells expressing human 4-1BB

T1 sequence (Q07011 24-255): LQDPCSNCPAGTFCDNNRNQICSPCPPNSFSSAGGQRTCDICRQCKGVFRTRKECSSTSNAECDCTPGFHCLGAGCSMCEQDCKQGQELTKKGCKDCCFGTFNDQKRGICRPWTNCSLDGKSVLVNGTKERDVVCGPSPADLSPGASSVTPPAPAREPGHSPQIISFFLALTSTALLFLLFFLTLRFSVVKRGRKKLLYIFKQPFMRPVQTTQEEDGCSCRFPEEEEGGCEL

B1: ZW103 (antibody, V domains shown)
VH: QVQLQQSGAELVRPGVSVKISCKGSGYTFTDYAMHWVKQSHVKSLEWIGGISTYNGDASYNQKFKGKATMTVDKSSRTAYMELVRLTSEDSAIYYCAPSNYGYAMDYWGQGTSVTVSS
VL: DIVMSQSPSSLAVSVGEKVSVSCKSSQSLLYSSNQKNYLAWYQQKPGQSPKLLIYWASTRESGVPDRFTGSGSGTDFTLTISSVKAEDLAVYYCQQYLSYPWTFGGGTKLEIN
notes: Mouse monoclonal antibody against human 4-1BB from a hybridoma; also called clone ZW103; 4-1BB mAb
binding result [1]: binds

B2: ZW104 (antibody, V domains shown)
VH: QVQLQQSGAELARPGASVKMSCKASGYIFTTYAMHWVKQRPGQGLEWIGYINPTTVYTIYNQKFKDKATLTADKSSSTAYMQLSSLTSEDSAVYYCARLGGHWYFDVWGAGTTVTVSS
VL: not shown
notes: Mouse monoclonal antibody against human 4-1BB from a hybridoma; also called clone ZW104; 4-1BB mAb
binding result [1]: binds

B3: ZW106 (antibody, V domains shown)
VH: QVQLQQPESELVRPGGSVKLSCKASGYTFTSYWMDWVKQRHGQGLEWIGNIYPDSGGTNYAEKFKSKATLTVDTSSSTAYMHLSSLTSEDSAVYYCTREEALGGYYELTYWGQGTLVTVSA
VL: DIVLTQSPASLPVSLGQRATISCRASQSVSTSSYSYMHWYQQKPGQPPKLLIKYASNLESGVPARFSGSGSGTDFTLNIHPVEEEDTATYYCQHSWEIPYTFGGGTKLEIE
notes: Mouse monoclonal antibody against human 4-1BB; also called clone ZW106; 4-1BB mAb
binding result [2]: binds

B4: ZW107 (antibody, V domains shown)
VH: QVQLQQSGAELVRPGTSVKISCKASGYAFTNYWLGWVKQRPGHGLEWIGDIYPGNGNNYYSEKFKDKATLTADKSSSTVYIRLSSLTSEDSAVYFCARHGSFRSAMDYWGQGTSVTVSS
VL: DIQMTQSPASPSASVGETVTITCRASENIYSYLAWYQQKQGKSPQLLVYNAKTLADGVPSRFSGSGSGTQFSLKINSLQPEDFGSYYCQHHYGTPPTFGGGTKLEIK
notes: Mouse monoclonal antibody against human 4-1BB; also called clone ZW107; 4-1BB mAb
binding result [2]: binds
